{
  "source": "patent US20220040297A1",
  "about": "(Chugai, published 2022)",
  "data": [
    {"target": "CD3ε homodimer protein (human, UniProt P07766 23-126, limits assumed)", "sequence (P07766 23-126 limits assumed)": "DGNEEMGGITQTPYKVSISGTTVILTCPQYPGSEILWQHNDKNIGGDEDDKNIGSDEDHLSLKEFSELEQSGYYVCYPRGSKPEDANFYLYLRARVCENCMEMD", "test": "SPR, immobilized CD3ε homodimer;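 note: biacore T200 surface plasmon resonance at 25 °C, antibody variants flowed as analytes over amine-coupled CD3ε homodimer on a CM4 chip, variant binding amount divided by that of GLS3000 antibody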", "values": [
      {"binder": "GLS3000 N53G (antibody, name in Kabat numbering, V domains shown, one-arm format as m2) VH: QVQLVESGGGVVQPGRSLRLSCAASGFTFSNAWMHWVRQAPGKGLEWVAQIKAKSNNYATYYAESVKGRFTISRDDSKNSLYLQMNSLKTEDTAVYYCRYVHYGAYYGVDAWGQGTTVTVSS VL: DIVMTQSPLSLPVTPGEPASISCRSSQSLVHSNRNTYLHWYQQKPGQAPRLLIYKVSGRFSGVPDRFSGSGSGTDFTLKISRVEAEDVGVYYCGQGTQVPYTFGQGTKLEIK", "ratio of amounts bound (vs GLS3000)": 0.76},
      {"binder": "GLS3000 N53I (antibody, name in Kabat numbering, V domains shown, one-arm format as m2) VH: QVQLVESGGGVVQPGRSLRLSCAASGFTFSNAWMHWVRQAPGKGLEWVAQIKAKSNNYATYYAESVKGRFTISRDDSKNSLYLQMNSLKTEDTAVYYCRYVHYGAYYGVDAWGQGTTVTVSS VL: DIVMTQSPLSLPVTPGEPASISCRSSQSLVHSNRNTYLHWYQQKPGQAPRLLIYKVSIRFSGVPDRFSGSGSGTDFTLKISRVEAEDVGVYYCGQGTQVPYTFGQGTKLEIK", "ratio of amounts bound (vs GLS3000)": 0.5},
      {"binder": "GLS3000 P95G (antibody, name in Kabat numbering, V domains shown, one-arm format as m2) VH: QVQLVESGGGVVQPGRSLRLSCAASGFTFSNAWMHWVRQAPGKGLEWVAQIKAKSNNYATYYAESVKGRFTISRDDSKNSLYLQMNSLKTEDTAVYYCRYVHYGAYYGVDAWGQGTTVTVSS VL: DIVMTQSPLSLPVTPGEPASISCRSSQSLVHSNRNTYLHWYQQKPGQAPRLLIYKVSNRFSGVPDRFSGSGSGTDFTLKISRVEAEDVGVYYCGQGTQVGYTFGQGTKLEIK", "ratio of amounts bound (vs GLS3000)": 0.37},
      {"binder": "GLS3000 N53S (antibody, name in Kabat numbering, V domains shown, one-arm format as m2) VH: QVQLVESGGGVVQPGRSLRLSCAASGFTFSNAWMHWVRQAPGKGLEWVAQIKAKSNNYATYYAESVKGRFTISRDDSKNSLYLQMNSLKTEDTAVYYCRYVHYGAYYGVDAWGQGTTVTVSS VL: DIVMTQSPLSLPVTPGEPASISCRSSQSLVHSNRNTYLHWYQQKPGQAPRLLIYKVSSRFSGVPDRFSGSGSGTDFTLKISRVEAEDVGVYYCGQGTQVPYTFGQGTKLEIK", "ratio of amounts bound (vs GLS3000)": 0.69},
      {"binder": "GLS3000 N53V (antibody, name in Kabat numbering, V domains shown, one-arm format as m2) VH: QVQLVESGGGVVQPGRSLRLSCAASGFTFSNAWMHWVRQAPGKGLEWVAQIKAKSNNYATYYAESVKGRFTISRDDSKNSLYLQMNSLKTEDTAVYYCRYVHYGAYYGVDAWGQGTTVTVSS VL: DIVMTQSPLSLPVTPGEPASISCRSSQSLVHSNRNTYLHWYQQKPGQAPRLLIYKVSVRFSGVPDRFSGSGSGTDFTLKISRVEAEDVGVYYCGQGTQVPYTFGQGTKLEIK", "ratio of amounts bound (vs GLS3000)": 0.56},
      {"binder": "GLS3000 P95A (antibody, name in Kabat numbering, V domains shown, one-arm format as m2) VH: QVQLVESGGGVVQPGRSLRLSCAASGFTFSNAWMHWVRQAPGKGLEWVAQIKAKSNNYATYYAESVKGRFTISRDDSKNSLYLQMNSLKTEDTAVYYCRYVHYGAYYGVDAWGQGTTVTVSS VL: DIVMTQSPLSLPVTPGEPASISCRSSQSLVHSNRNTYLHWYQQKPGQAPRLLIYKVSNRFSGVPDRFSGSGSGTDFTLKISRVEAEDVGVYYCGQGTQVAYTFGQGTKLEIK", "ratio of amounts bound (vs GLS3000)": 0.63},
      {"binder": "GLS3000 N53Q (antibody, name in Kabat numbering, V domains shown, one-arm format as m2) VH: QVQLVESGGGVVQPGRSLRLSCAASGFTFSNAWMHWVRQAPGKGLEWVAQIKAKSNNYATYYAESVKGRFTISRDDSKNSLYLQMNSLKTEDTAVYYCRYVHYGAYYGVDAWGQGTTVTVSS VL: DIVMTQSPLSLPVTPGEPASISCRSSQSLVHSNRNTYLHWYQQKPGQAPRLLIYKVSQRFSGVPDRFSGSGSGTDFTLKISRVEAEDVGVYYCGQGTQVPYTFGQGTKLEIK", "ratio of amounts bound (vs GLS3000)": 0.77},
      {"binder": "GLS3000 N53P (antibody, name in Kabat numbering, V domains shown, one-arm format as m2) VH: QVQLVESGGGVVQPGRSLRLSCAASGFTFSNAWMHWVRQAPGKGLEWVAQIKAKSNNYATYYAESVKGRFTISRDDSKNSLYLQMNSLKTEDTAVYYCRYVHYGAYYGVDAWGQGTTVTVSS VL: DIVMTQSPLSLPVTPGEPASISCRSSQSLVHSNRNTYLHWYQQKPGQAPRLLIYKVSPRFSGVPDRFSGSGSGTDFTLKISRVEAEDVGVYYCGQGTQVPYTFGQGTKLEIK", "ratio of amounts bound (vs GLS3000)": 0.81},
      {"binder": "GLS3000 P95E (antibody, name in Kabat numbering, V domains shown, one-arm format as m2) VH: QVQLVESGGGVVQPGRSLRLSCAASGFTFSNAWMHWVRQAPGKGLEWVAQIKAKSNNYATYYAESVKGRFTISRDDSKNSLYLQMNSLKTEDTAVYYCRYVHYGAYYGVDAWGQGTTVTVSS VL: DIVMTQSPLSLPVTPGEPASISCRSSQSLVHSNRNTYLHWYQQKPGQAPRLLIYKVSNRFSGVPDRFSGSGSGTDFTLKISRVEAEDVGVYYCGQGTQVEYTFGQGTKLEIK", "ratio of amounts bound (vs GLS3000)": 0.39},
      {"binder": "GLS3000 N53Y (antibody, name in Kabat numbering, V domains shown, one-arm format as m2) VH: QVQLVESGGGVVQPGRSLRLSCAASGFTFSNAWMHWVRQAPGKGLEWVAQIKAKSNNYATYYAESVKGRFTISRDDSKNSLYLQMNSLKTEDTAVYYCRYVHYGAYYGVDAWGQGTTVTVSS VL: DIVMTQSPLSLPVTPGEPASISCRSSQSLVHSNRNTYLHWYQQKPGQAPRLLIYKVSYRFSGVPDRFSGSGSGTDFTLKISRVEAEDVGVYYCGQGTQVPYTFGQGTKLEIK", "ratio of amounts bound (vs GLS3000)": 0.67},
      {"binder": "GLS3000 N53T (antibody, name in Kabat numbering, V domains shown, one-arm format as m2) VH: QVQLVESGGGVVQPGRSLRLSCAASGFTFSNAWMHWVRQAPGKGLEWVAQIKAKSNNYATYYAESVKGRFTISRDDSKNSLYLQMNSLKTEDTAVYYCRYVHYGAYYGVDAWGQGTTVTVSS VL: DIVMTQSPLSLPVTPGEPASISCRSSQSLVHSNRNTYLHWYQQKPGQAPRLLIYKVSTRFSGVPDRFSGSGSGTDFTLKISRVEAEDVGVYYCGQGTQVPYTFGQGTKLEIK", "ratio of amounts bound (vs GLS3000)": 0.56},
      {"binder": "GLS3000 N53K (antibody, name in Kabat numbering, V domains shown, one-arm format as m2) VH: QVQLVESGGGVVQPGRSLRLSCAASGFTFSNAWMHWVRQAPGKGLEWVAQIKAKSNNYATYYAESVKGRFTISRDDSKNSLYLQMNSLKTEDTAVYYCRYVHYGAYYGVDAWGQGTTVTVSS VL: DIVMTQSPLSLPVTPGEPASISCRSSQSLVHSNRNTYLHWYQQKPGQAPRLLIYKVSKRFSGVPDRFSGSGSGTDFTLKISRVEAEDVGVYYCGQGTQVPYTFGQGTKLEIK", "ratio of amounts bound (vs GLS3000)": 1.08},
      {"binder": "GLS3000 P95D (antibody, name in Kabat numbering, V domains shown, one-arm format as m2) VH: QVQLVESGGGVVQPGRSLRLSCAASGFTFSNAWMHWVRQAPGKGLEWVAQIKAKSNNYATYYAESVKGRFTISRDDSKNSLYLQMNSLKTEDTAVYYCRYVHYGAYYGVDAWGQGTTVTVSS VL: DIVMTQSPLSLPVTPGEPASISCRSSQSLVHSNRNTYLHWYQQKPGQAPRLLIYKVSNRFSGVPDRFSGSGSGTDFTLKISRVEAEDVGVYYCGQGTQVDYTFGQGTKLEIK", "ratio of amounts bound (vs GLS3000)": 0.24},
      {"binder": "GLS3000 N53M (antibody, name in Kabat numbering, V domains shown, one-arm format as m2) VH: QVQLVESGGGVVQPGRSLRLSCAASGFTFSNAWMHWVRQAPGKGLEWVAQIKAKSNNYATYYAESVKGRFTISRDDSKNSLYLQMNSLKTEDTAVYYCRYVHYGAYYGVDAWGQGTTVTVSS VL: DIVMTQSPLSLPVTPGEPASISCRSSQSLVHSNRNTYLHWYQQKPGQAPRLLIYKVSMRFSGVPDRFSGSGSGTDFTLKISRVEAEDVGVYYCGQGTQVPYTFGQGTKLEIK", "ratio of amounts bound (vs GLS3000)": 0.62},
      {"binder": "GLS3000 N53R (antibody, name in Kabat numbering, V domains shown, one-arm format as m2) VH: QVQLVESGGGVVQPGRSLRLSCAASGFTFSNAWMHWVRQAPGKGLEWVAQIKAKSNNYATYYAESVKGRFTISRDDSKNSLYLQMNSLKTEDTAVYYCRYVHYGAYYGVDAWGQGTTVTVSS VL: DIVMTQSPLSLPVTPGEPASISCRSSQSLVHSNRNTYLHWYQQKPGQAPRLLIYKVSRRFSGVPDRFSGSGSGTDFTLKISRVEAEDVGVYYCGQGTQVPYTFGQGTKLEIK", "ratio of amounts bound (vs GLS3000)": 1.58},
      {"binder": "GLS3000 N53H (antibody, name in Kabat numbering, V domains shown, one-arm format as m2) VH: QVQLVESGGGVVQPGRSLRLSCAASGFTFSNAWMHWVRQAPGKGLEWVAQIKAKSNNYATYYAESVKGRFTISRDDSKNSLYLQMNSLKTEDTAVYYCRYVHYGAYYGVDAWGQGTTVTVSS VL: DIVMTQSPLSLPVTPGEPASISCRSSQSLVHSNRNTYLHWYQQKPGQAPRLLIYKVSHRFSGVPDRFSGSGSGTDFTLKISRVEAEDVGVYYCGQGTQVPYTFGQGTKLEIK", "ratio of amounts bound (vs GLS3000)": 1.18},
      {"binder": "GLS3000 P95L (antibody, name in Kabat numbering, V domains shown, one-arm format as m2) VH: QVQLVESGGGVVQPGRSLRLSCAASGFTFSNAWMHWVRQAPGKGLEWVAQIKAKSNNYATYYAESVKGRFTISRDDSKNSLYLQMNSLKTEDTAVYYCRYVHYGAYYGVDAWGQGTTVTVSS VL: DIVMTQSPLSLPVTPGEPASISCRSSQSLVHSNRNTYLHWYQQKPGQAPRLLIYKVSNRFSGVPDRFSGSGSGTDFTLKISRVEAEDVGVYYCGQGTQVLYTFGQGTKLEIK", "ratio of amounts bound (vs GLS3000)": 0.24},
      {"binder": "GLS3000 P95S (antibody, name in Kabat numbering, V domains shown, one-arm format as m2) VH: QVQLVESGGGVVQPGRSLRLSCAASGFTFSNAWMHWVRQAPGKGLEWVAQIKAKSNNYATYYAESVKGRFTISRDDSKNSLYLQMNSLKTEDTAVYYCRYVHYGAYYGVDAWGQGTTVTVSS VL: DIVMTQSPLSLPVTPGEPASISCRSSQSLVHSNRNTYLHWYQQKPGQAPRLLIYKVSNRFSGVPDRFSGSGSGTDFTLKISRVEAEDVGVYYCGQGTQVSYTFGQGTKLEIK", "ratio of amounts bound (vs GLS3000)": 0.43},
      {"binder": "GLS3000 N53L (antibody, name in Kabat numbering, V domains shown, one-arm format as m2) VH: QVQLVESGGGVVQPGRSLRLSCAASGFTFSNAWMHWVRQAPGKGLEWVAQIKAKSNNYATYYAESVKGRFTISRDDSKNSLYLQMNSLKTEDTAVYYCRYVHYGAYYGVDAWGQGTTVTVSS VL: DIVMTQSPLSLPVTPGEPASISCRSSQSLVHSNRNTYLHWYQQKPGQAPRLLIYKVSLRFSGVPDRFSGSGSGTDFTLKISRVEAEDVGVYYCGQGTQVPYTFGQGTKLEIK", "ratio of amounts bound (vs GLS3000)": 0.56},
      {"binder": "GLS3000 N53W (antibody, name in Kabat numbering, V domains shown, one-arm format as m2) VH: QVQLVESGGGVVQPGRSLRLSCAASGFTFSNAWMHWVRQAPGKGLEWVAQIKAKSNNYATYYAESVKGRFTISRDDSKNSLYLQMNSLKTEDTAVYYCRYVHYGAYYGVDAWGQGTTVTVSS VL: DIVMTQSPLSLPVTPGEPASISCRSSQSLVHSNRNTYLHWYQQKPGQAPRLLIYKVSWRFSGVPDRFSGSGSGTDFTLKISRVEAEDVGVYYCGQGTQVPYTFGQGTKLEIK", "ratio of amounts bound (vs GLS3000)": 0.81}
    ]}
  ]
}
